{
  "source": "paper PMC1905944",
  "key": {"[1]": {"molecular_target": "full-length HIV-1 WT integrase (HIV-1)", "test": "cross-linking + SEC; covalent IN oligomers made by chemical cross-linking and separated by size-exclusion chromatography, as previously described [10]; dimers and tetramers recovered"}, "[2]": {"molecular_target": "full-length HIV-1 WT integrase (HIV-1)", "test": "cross-linking; IN (5 pmol, 0.5 uM) with the 5'-radiolabelled 38-bp PalA/PalB duplex (1 pmol, 0.1 uM; HIV-1 LTR-LTR junction) and AHDAP 300 uM, 0.05% NP40, 10 mM DTT, 20 mM HEPES pH 7.5, 37 C in the dark, 0 to 60 min; SDS-PAGE and autoradiography; IN oligomers seen bound to DNA"}},
  "note": "Values joined by “and” are separate entries in the source; they are usually repeats but may differ in a detail not shown here. Identical values can stand only once.",
  "data": [
    {"substance": "full-length HIV-1 WT integrase (enzyme)", "values": [
      {"measurement": "stoichiometry N", "setting": "[1]", "result": "2 and 4"},
      {"measurement": "stoichiometry N", "setting": "[2]", "result": "2 and 4"}
    ]}
  ]
}
